From article PMC6529188 (Cell, 2019)
Where no end group is shown, it is not given here.

What was measured:
[1] = target: the molecule itself; experiment: SDS-PAGE without boiling of bicelle-reconstituted protein
cross-linking = target: the molecule itself; experiment: cross-linking

Protein | stoichiometry N [1] | stoichiometry N (cross-linking)
PGSLSGIIIGVTVAAVVLIVAVFVCKSLLWKKVLP (domain or fragment, UniProt O14763-1 208-242, looked up) [DR5^TMH (human DR5 isoform 1 residues 208-242, C209G), wild type] | 3 | 
PGSLSGIIIYVTVAAVVLIVAVFVCKSLLWKKVLP (domain or fragment, human, UniProt O14763-1 208-242, looked up) [DR5^TMH G217Y mutant] | 3 | 
PGSLSGIIIGVTVAAVVLIYAVFVCKSLLWKKVLP (domain or fragment, human, UniProt O14763-1 208-242, looked up) [DR5^TMH V227Y mutant] | 3 | 
PGSLSGIIIGVTVAAVVLIVAVFVCKSLLWKKVLP (domain or fragment, human, UniProt O14763-1 208-242, looked up, also: His6-tagged, active amine groups blocked with Sulfo-NHS Acetate) [His6-tagged DR5^TMH, wild type (for OG-label)] |  | 6
PGSLSGIIIYVTVAAVVLIVAVFVCKSLLWKKVLP (domain or fragment, human, UniProt O14763-1 208-242, looked up, also: His6-tagged, active amine groups blocked with Sulfo-NHS Acetate) [His6-tagged DR5^TMH G217Y mutant (for OG-label)] |  | 3
PGSLSGIIIGVTVAAVVLIYAVFVCKSLLWKKVLP (domain or fragment, human, UniProt O14763-1 208-242, looked up, also: His6-tagged, active amine groups blocked with Sulfo-NHS Acetate) [His6-tagged DR5^TMH V227Y mutant (for OG-label)] |  | 6
